As usually defined, the Kd is the equilibrium constant for the complex coming apart. As a reminder, the koff is the rate constant with which the complex falls apart. By kon is commonly meant the rate constant with which the complex forms.

In PMC7367449 one finds Kd, koff and kon data, which are given here for one substance.

The target of assay [1] is anti-gH Mab OHV-3 (murine). The assay can be described thus: SPR; Biacore T200, CM5 chip; Mab captured via immobilised Protein A/Protein L; soluble tetramer injected at 5, 10, 20, 40 and 80 nM; single-cycle kinetics.
Assay [2] concerns the target recombinant hCD134 with C-terminal human FcHis-tag replacing the transmembrane domain (hCD134-hFcHis) (human) (UniProt P43489). The assay can be described thus: SPR; Biacore T200, CM5 chip; hCD134-hFcHis captured via immobilised Protein A; soluble tetramer injected; multi-cycle kinetics, 1:1 binding fit.
For assay [3] the target is unchanged. The experiment in a line: SPR; Biacore T200, CM5 chip; hCD134-hFcHis captured via immobilised Protein A; soluble tetramer injected; steady-state affinity analysis of the response units at equilibrium. (In general: Surface plasmon resonance follows binding to a sensor surface in real time, without labels.)

anti-gH Mab OHV-3 (murine), sequence (heavy, as listed by the source, chain 1 of 2): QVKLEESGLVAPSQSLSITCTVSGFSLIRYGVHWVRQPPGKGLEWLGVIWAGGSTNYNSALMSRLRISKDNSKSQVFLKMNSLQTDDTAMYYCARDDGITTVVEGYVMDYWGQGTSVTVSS
anti-gH Mab OHV-3 (murine), sequence (light, as listed by the source, chain 2 of 2): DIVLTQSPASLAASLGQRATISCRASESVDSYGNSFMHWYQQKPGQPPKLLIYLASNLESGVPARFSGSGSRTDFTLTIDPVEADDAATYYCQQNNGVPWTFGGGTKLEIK
UniProt P43489, sequence (P43489 29-214): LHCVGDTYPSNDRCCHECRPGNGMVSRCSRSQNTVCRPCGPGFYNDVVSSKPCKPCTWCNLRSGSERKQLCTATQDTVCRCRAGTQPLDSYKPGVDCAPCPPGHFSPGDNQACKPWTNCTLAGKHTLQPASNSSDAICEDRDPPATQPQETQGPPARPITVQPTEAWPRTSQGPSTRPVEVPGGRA

As for “soluble HHV-6B gH/gL/gQ1/gQ2 complex (HHV-6B tetramer)”, in assay [1], the Kd stood at 0.0027 µM, the koff worked out at 0.00035 s⁻¹ and the association rate constant (kon) was 130000 M⁻¹ s⁻¹. In assay [2], the Kd is 0.014 µM, the dissociation rate constant (koff) was 0.0158 s⁻¹ and the on-rate (kon) was found to be 1.1e+06 M⁻¹ s⁻¹. Further, the Kd in assay [3] was 0.018 µM.
